From patent US20220380482A1

Biological target: human neonatal Fc receptor (FcRn) (human) (UniProt P55899)
Assay: SPR (Biacore T200), FcRn amine-coupled to CM5 chip, antibody as analyte, steady state fit, pH 6.0

human neonatal Fc receptor (FcRn) (human), sequence (P55899 24-297 limits assumed, chain 1 of 2): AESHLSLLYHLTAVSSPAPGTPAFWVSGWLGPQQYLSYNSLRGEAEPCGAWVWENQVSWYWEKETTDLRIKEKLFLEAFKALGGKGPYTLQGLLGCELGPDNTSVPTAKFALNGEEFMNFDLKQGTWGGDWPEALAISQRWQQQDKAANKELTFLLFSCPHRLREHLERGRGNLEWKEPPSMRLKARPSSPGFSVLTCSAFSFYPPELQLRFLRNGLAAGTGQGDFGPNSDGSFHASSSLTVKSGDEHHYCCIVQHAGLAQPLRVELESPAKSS
human neonatal Fc receptor (FcRn) (human), sequence (P61769 21-119 limits assumed, chain 2 of 2, further chain): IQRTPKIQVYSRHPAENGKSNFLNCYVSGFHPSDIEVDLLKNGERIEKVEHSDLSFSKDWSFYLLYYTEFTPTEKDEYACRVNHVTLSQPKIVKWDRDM

Irrelevant IgG4 (antibody)
Kd: 3250 nM

Irrelevant IgG1 (antibody)
Kd: 2370 nM
